For ten molecules, Kd results are on record in patent US20220089784A1 (University of California, published 2022).

One assay concerns the target T1, BoNT/B1 (Clostridium botulinum, UniProt P10844 2-1291).
T1 sequence: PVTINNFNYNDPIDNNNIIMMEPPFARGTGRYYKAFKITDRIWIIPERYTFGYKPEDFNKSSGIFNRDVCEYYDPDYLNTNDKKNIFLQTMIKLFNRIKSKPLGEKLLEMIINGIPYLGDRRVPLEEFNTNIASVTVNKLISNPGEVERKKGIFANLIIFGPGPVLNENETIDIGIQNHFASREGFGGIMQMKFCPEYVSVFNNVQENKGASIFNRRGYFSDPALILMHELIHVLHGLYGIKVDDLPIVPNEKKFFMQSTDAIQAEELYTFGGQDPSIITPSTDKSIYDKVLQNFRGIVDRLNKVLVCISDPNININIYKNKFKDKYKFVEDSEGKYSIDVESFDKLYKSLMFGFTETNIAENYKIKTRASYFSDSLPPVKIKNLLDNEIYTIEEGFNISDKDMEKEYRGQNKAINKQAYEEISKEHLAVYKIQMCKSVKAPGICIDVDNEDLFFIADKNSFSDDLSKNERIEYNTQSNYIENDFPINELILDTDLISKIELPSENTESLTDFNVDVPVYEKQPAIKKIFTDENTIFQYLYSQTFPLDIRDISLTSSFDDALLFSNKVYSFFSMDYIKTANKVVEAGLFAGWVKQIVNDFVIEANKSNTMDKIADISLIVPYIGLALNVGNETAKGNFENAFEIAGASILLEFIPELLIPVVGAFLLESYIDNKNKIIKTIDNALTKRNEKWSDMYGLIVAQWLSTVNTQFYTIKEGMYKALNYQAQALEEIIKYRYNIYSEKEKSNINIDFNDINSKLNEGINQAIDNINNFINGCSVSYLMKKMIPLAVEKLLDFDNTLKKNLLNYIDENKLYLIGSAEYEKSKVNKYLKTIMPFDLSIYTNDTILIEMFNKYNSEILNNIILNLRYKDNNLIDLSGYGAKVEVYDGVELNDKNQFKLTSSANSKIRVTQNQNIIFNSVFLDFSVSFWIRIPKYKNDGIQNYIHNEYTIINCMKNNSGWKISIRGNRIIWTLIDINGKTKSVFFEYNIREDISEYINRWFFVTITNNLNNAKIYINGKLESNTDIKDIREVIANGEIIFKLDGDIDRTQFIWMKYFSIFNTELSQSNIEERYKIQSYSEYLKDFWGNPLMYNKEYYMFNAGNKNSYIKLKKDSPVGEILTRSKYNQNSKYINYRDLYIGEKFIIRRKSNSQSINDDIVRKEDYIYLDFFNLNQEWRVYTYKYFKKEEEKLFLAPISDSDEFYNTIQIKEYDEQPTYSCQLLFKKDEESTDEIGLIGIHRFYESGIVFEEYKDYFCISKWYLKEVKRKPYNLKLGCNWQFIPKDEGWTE
In words: yeast scFv FACS.

Assay [1] concerns the target T2, BoNT/B light chain (recombinant) (Clostridium botulinum, UniProt P10844 1-441).
T2 sequence: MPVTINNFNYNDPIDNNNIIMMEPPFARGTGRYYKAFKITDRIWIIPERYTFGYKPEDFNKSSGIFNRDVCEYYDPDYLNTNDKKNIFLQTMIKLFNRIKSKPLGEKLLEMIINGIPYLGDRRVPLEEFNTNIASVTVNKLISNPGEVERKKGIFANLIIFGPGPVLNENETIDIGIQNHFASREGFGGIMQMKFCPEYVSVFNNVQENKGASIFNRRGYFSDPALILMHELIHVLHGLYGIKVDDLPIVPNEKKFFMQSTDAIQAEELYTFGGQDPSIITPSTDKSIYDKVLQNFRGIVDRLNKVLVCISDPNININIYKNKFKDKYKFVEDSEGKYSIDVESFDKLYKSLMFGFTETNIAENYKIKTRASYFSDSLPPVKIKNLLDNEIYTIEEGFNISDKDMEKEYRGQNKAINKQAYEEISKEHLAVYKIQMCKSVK
In words: yeast scFv FACS.

Assay [2] has as its target T3, BoNT/F1 (proteolytic BoNT/F) (Clostridium botulinum, UniProt A7GBG3 1-1278).
T3 sequence: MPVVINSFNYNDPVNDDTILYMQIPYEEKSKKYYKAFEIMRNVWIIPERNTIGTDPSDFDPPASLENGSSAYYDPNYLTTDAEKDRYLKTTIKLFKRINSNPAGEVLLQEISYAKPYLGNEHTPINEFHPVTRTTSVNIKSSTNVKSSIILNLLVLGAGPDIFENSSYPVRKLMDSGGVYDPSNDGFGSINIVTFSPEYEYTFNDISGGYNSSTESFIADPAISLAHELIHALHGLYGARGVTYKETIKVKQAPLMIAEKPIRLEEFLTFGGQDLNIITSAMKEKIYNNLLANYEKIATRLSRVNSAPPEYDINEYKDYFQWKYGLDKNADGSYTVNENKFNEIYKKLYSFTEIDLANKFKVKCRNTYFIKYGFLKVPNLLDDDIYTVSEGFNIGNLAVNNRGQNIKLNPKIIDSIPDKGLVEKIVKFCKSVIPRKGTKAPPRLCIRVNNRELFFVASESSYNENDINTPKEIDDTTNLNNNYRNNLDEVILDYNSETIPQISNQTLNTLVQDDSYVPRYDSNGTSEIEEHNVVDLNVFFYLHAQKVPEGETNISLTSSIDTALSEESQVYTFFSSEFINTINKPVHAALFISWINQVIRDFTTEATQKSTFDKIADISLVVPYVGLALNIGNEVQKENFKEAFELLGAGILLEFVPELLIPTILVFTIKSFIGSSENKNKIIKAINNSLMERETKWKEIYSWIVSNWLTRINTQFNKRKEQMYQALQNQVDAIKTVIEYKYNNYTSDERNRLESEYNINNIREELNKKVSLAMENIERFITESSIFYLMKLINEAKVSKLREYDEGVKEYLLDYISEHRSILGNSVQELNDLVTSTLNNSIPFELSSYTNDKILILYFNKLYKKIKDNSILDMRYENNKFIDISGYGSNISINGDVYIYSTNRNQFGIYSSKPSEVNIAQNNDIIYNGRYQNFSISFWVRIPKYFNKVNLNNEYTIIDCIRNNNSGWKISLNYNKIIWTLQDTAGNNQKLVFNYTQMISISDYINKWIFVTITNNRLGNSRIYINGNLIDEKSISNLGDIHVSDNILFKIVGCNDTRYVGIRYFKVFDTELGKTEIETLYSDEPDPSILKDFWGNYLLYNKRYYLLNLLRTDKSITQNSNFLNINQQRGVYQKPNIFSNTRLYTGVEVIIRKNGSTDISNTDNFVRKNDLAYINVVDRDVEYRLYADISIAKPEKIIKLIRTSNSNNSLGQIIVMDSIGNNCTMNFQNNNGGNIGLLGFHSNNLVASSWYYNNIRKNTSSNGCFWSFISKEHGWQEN
In words: IgG.

B1: 19B6 scFv (scFv)
scFv: QVQLQQSGAELVKPGASVKISCKASGYTFTDNYINWVKQRPGQGLEWIGWIHPGSGNAKYNEKFRAKATLTVDTSSNTAYMQLSSLTSEDSAVYFCARVGFRVNFDYWGQGTTLTVSSVDLKSGGSTSGSGKPGSGEGSSGSARQIVLTQSPAIMSASPGEKVTMTCSASSSLSYVHWYQQKPGSSPKPWIYATSNLVSGVPARFSGSRSGTSYSLTISSMEAEDAATYYCQQWSSYPPTFGAGTKLEIK
notes: mouse
The Kd is the constant that tells how readily two partners part at equilibrium. In the case of B1, the Kd with BoNT/B1 was found to be 19.7 nM; in assay [1], 2.35 nM.

B2: 18A6 scFv (scFv)
scFv: EVQLQQSGPELVKPGASVKISCKASGYTFTDNYINWVKQRPGQGLEWIGWIYPGSGNTKYNEKFKGKATLTVDTSSNTAYMQLTGLASDDSAVYFCARVNFYVSWDYWGQGTSVTVSSVDLKSGGSTSGSGKPGSGEGSSGSAREIVLTQSPAIMSASPGEKVTMTCSASSSISYMHWFQQKPGMSPKRRIFDTSKLASGVPARFSGSGSGTSYSLTISSMEAEDAGTYYCHQRSSYPFTFGGGTKLELK
notes: mouse
With B2, the figures for the equilibrium dissociation constant (Kd) (with BoNT/B1; in assay [1]) were 14.5 nM and 4.21 nM, respectively.

B3: 18E5 scFv (scFv)
scFv: EVQLQESGPELVKPGASVKISCKASGYTFTDHNMDWVKQSLGKSLEWIGDINPNNGGAVYNQNFKGKATLTVDKSSSTAYMELRSLTSEDTAVYYCARYGYYGYFDYWGQGTTLTVSSVDLKSGGSTSGSGKPGSGEGSSGSARQIVLTQSPAIMSASPGEKVTMTCRASSSVSSSYLHWYQQKPGSSPKLWIYSTSNLASGVPARFSGSGSGTSYSLTISSVEAEDAATYYCQQYDSSPSTFGAGTKLEIK
notes: mouse
Take B3: the figures for the Kd (with BoNT/B1; in assay [1]) were 1.33 nM and 1 nM, respectively.

B4: 6F4 IgG (antibody, V domains shown)
VH: EVQLQESGPELVKPGASVKISCKTSGYTFTDYYMNWVKQSHGKSLEWIGDINPNNGGATYNQKFKGKATLTVDKSSRTLYMELRSLTSEDSAVYHCACGPYFFDFWGQGTTLTVSS
VL: QIVLTQSPATMSASPGEKVTITCSASSSVNYMHWYQQKPGSSPKLWIYDTSSLAPGVPARFSGSGSGTSYSLTISSMEAEDAASYFCHQWSSYPYTFGGGTKLEIK
notes: IgG from scFv V genes
The molecule B4 registered a Kd in assay [2] of 1.17 nM.

B5: 19D22 scFv (scFv)
scFv: QIQLLQSGAELVRPGTSVKMSCKAAGYPFTSYWMGWVKQRPGHGLEWIGDIYPGGPYTNYNEKFKGKATLTADTSSSTAYMQFSSLTSEDSAIYYCALYGQVGSYAMDYWGQGTSVTVSSVDLKSGGSTSGSGKPGSGEGSSGSARQIVLTQSPAIMSASPGEKVTMTCSASSSVSYMYWYQQKPGSSPRLLIYDTSNLASGVPVRFSGSGSGTSYSLTISRMEAEDAATYYCQQWSSYPPITFGAGTKLEIK
notes: mouse
Take B5: the Kd with BoNT/B1 was 7.39 nM; in assay [1], 21.2 nM.

B6: 16B3 scFv (scFv)
scFv: EVQLQQSGPELVKPGASVKITCKASGYTFTDNNMDWVKQSHGKSLEWIGDINPNNGGSIYNQKFKGKASLTLDKSSSTAYMELRSLTSEDTAVYYCARWGYYGSLAYWGQGTLVTVSSVDLKSGGSTSGSGKPGSGEGSSGSARQNVLTQSPAIMSASPGEKVTMTCSASSSVSSRYLHWYQQKSGASPKLWIYGTSNLASGVPARFSGSGSGTSYSLTISSVEAEDAATYYCQQYHSDPLTFGGGTKLEIK
notes: mouse
As to B6, the Kd in the assay with BoNT/B1 was 1.01 nM; in assay [1], 0.84 nM.

B7: 16D5 scFv (scFv)
scFv: EVKLVESGAELVRPGASVKLSCTPSGFNIKDDYMHWVKQRPEQGLEWIGRIDPANGNTRYAPKFQDKATLTADTSSNTAYLHLTSLTSEDTAVYYCARSYYRAWFDYWGQGTLVTVSSVDLKSGGSTSGSGKPGSGEGSSGSARQIVLTQSPATLSVTPGDSVSLSCRASQSISNNLHWYQQKSHESPRLLIKYASQSISGIPSRFSGSGSGTDFTLSINSVETEDFGMYFCQQSNSWPLTFGAGTRLEIK
notes: mouse
B7: the Kd with BoNT/B1 was determined as 7.57 nM; in assay [1], 1.8 nM.

B8: 6F3 IgG (antibody, V domains shown)
VH: QVQLQQSGPEVVKPGASVKISCKASGYTFADYWIGWTKQGPGHGLEWIGHIYPGGGYINYNEKFKGKATLTADMSSSTAYMQFSSLTSEDSAIYYCARVTMVESGDWYFDVWGTGTTVTVSS
VL: ENVLTQSPAIMSASLGEEITLTCSASSSVSYMHWYQQKSGTSPKLWIYYTSNLASGVPARFSGSGSGTSYSLTISSMEAEDAATYYCQQWSSNPYTFGGGTKLEIK
notes: IgG from scFv V genes
As for B8, the affinity in assay [2], expressed as Kd, was 2.39 nM.

B9: 6F5 IgG (antibody, V domains shown)
VH: EVQLVQSGGNLVQPGGSLRLSCAATGPIGSHWMTWVRQAPGQGLEWVANINLDGTEKFYVDSVKGRFTVSRDNRKSSVFLQMNNLRVDDTAVYYCARLQWGGYNGWLSPWGQGTLVTVSS
VL: DIEMTQSPPSLSASVGDRVSLTCRASEYIGTSLNWYQQKPGKAPKLLIYAASALHSGVPSRFSGSGSGTDFTLTISGLQPEDFATYYCQQANDLPLTFGGGTKLEIK
B9: binding in assay [2] was put at a Kd of 0.66 nM.

B10: 18D10 scFv (scFv)
scFv: QVQLKQSGIEVMKPGASVKLSCKASGYPFTAYWIEWVKQRPGHGLEWIGEFLPGGISTNFNEKFKGKATFSADTSSNSAYIQLNSLTTEDSAIYYCVLTGTGFDYWGQGTSVTVSSVDLKSGGSTSGSGKPGSGEGSSGSARENVLTQSPAIMSASPGEKVTMTCSASSSVSYMHWYQQKSGTSPKRWIYDTSKLASGVPARFSGSGSGTSYSLTISSMEAEDAATYYCQQWSSNPLTFGAGTKLELK
notes: mouse
For the molecule B10, the Kd is 5.97 nM in the assay with BoNT/B1 and 7.53 nM in assay [1].
